PMC2668763
Read-outs that look alike come from different tables or passages of the source.

## hCdc14A: Cdc14A phosphorylation mutants (S351,363A and S351,363D)
Phosphorylation at S351
  localisation_or_trafficking: no change
Phosphorylation at S363
  localisation_or_trafficking: no change
